Test results taken from US20220119549A1 (TAVOTEK BIOTHERAPEUTICS HONG KONG, published 2022).

Each binder was assayed against T1, recombinant human TNFα (human, UniProt P01375 77-233) (assay: ELISA on human TNFα, after MMP2 cleavage).
T1 construct: Bought protein
Procedure: (§1) In this assay, 1 μg/mL recombinant human TNFα (R&D systems) was coated on an ELISA plate. Increasing concentrations of anti-TNFα shielded antibodies were applied on the plate and their binding to the recombinant human TNFα was detected by HRP-conjugated anti-human secondary antibody.

T1 sequence (P01375 77-233 limits assumed): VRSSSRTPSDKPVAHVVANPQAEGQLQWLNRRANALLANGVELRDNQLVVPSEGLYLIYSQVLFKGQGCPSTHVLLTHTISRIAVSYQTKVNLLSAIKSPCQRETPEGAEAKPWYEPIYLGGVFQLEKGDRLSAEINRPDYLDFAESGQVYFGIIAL

Binder | binding result
TAVO271272 after digestion by MMP2 (antibody, the antibody part is that of TAVO167127 (EAC271/EAC272 are identical to EAC190/EAC191 but for the IGF2 mutations); not shown: remnant of the protease-cleavable linker left after cleavage) heavy: EVQLVESGGGLVQPGGSLRLSCAASGFDFADYAMHWVRQAPGKGLEWVSAITWNGGHTDYADSVKGRFTISRDNSKNTLYLQMNSLRAEDTAVYYCAKVSYLSTASSLDYWGQGTLVTVSSASTKGPSVFPLAPSSKSTSGGTAALGCLVKDYFPEPVTVSWNSGALTSGVHTFPAVLQSSGLYSLSSVVTVPSSSLGTQTYICNVNHKPSNTKVDKKVEPKSCDKTHTCPPCPAPPAAGPSVFLFPPKPKDTLMISRTPEVTCVVVDVSHEDPEVKFNWYVDGVEVHNAKTKPREEQYNSTYRVVSVLTVLHQDWLNGKEYKCKVSNKALPAPIEKTISKAKGQPREPQVYTLPPSRDELTKNQVSLTCLVKGFYPSDIAVEWESNGQPENNYKTTPPVLDSDGSFLLYSKLTVDKSRWQQGNVFSCSVLHEALHSHYTQKSLSLSPGK light: not shown | binds

These binders were tested against T1, recombinant human TNFα (assay: ELISA, recombinant human TNFα coated at 1 µg/mL, after protease cleavage).
Procedure: as §1

Binder | binding result
TAVO186187 after digestion by MMP2 (antibody, also called digested shielded antibody; digested TAVO186187; not shown: remnant of the protease-cleavable linker left after cleavage) heavy: EVQLVESGGGLVQPGGSLRLSCAASGFDFADYAMHWVRQAPGKGLEWVSAITWNGGHTDYADSVKGRFTISRDNSKNTLYLQMNSLRAEDTAVYYCAKVSYLSTASSLDYWGQGTLVTVSSASTKGPSVFPLAPSSKSTSGGTAALGCLVKDYFPEPVTVSWNSGALTSGVHTFPAVLQSSGLYSLSSVVTVPSSSLGTQTYICNVNHKPSNTKVDKKVEPKSCDKTHTCPPCPAPPAAGPSVFLFPPKPKDTLMISRTPEVTCVVVDVSHEDPEVKFNWYVDGVEVHNAKTKPREEQYNSTYRVVSVLTVLHQDWLNGKEYKCKVSNKALPAPIEKTISKAKGQPREPQVYTLPPSRDELTKNQVSLTCLVKGFYPSDIAVEWESNGQPENNYKTTPPVLDSDGSFLLYSKLTVDKSRWQQGNVFSCSVLHEALHSHYTQKSLSLSPGK light: not shown | binds
TAVO198199 after digestion by uPA (antibody, also called digested shielded antibody; digested TAVO198199; not shown: remnant of the protease-cleavable linker left after cleavage) heavy: EVQLVESGGGLVQPGGSLRLSCAASGFDFADYAMHWVRQAPGKGLEWVSAITWNGGHTDYADSVKGRFTISRDNSKNTLYLQMNSLRAEDTAVYYCAKVSYLSTASSLDYWGQGTLVTVSSASTKGPSVFPLAPSSKSTSGGTAALGCLVKDYFPEPVTVSWNSGALTSGVHTFPAVLQSSGLYSLSSVVTVPSSSLGTQTYICNVNHKPSNTKVDKKVEPKSCDKTHTCPPCPAPPAAGPSVFLFPPKPKDTLMISRTPEVTCVVVDVSHEDPEVKFNWYVDGVEVHNAKTKPREEQYNSTYRVVSVLTVLHQDWLNGKEYKCKVSNKALPAPIEKTISKAKGQPREPQVYTLPPSRDELTKNQVSLTCLVKGFYPSDIAVEWESNGQPENNYKTTPPVLDSDGSFLLYSKLTVDKSRWQQGNVFSCSVLHEALHSHYTQKSLSLSPGK light: not shown | binds
TAVO192193 after digestion by MMP2 (antibody, also called digested shielded antibody; digested TAVO192193; not shown: remnant of the protease-cleavable linker left after cleavage) heavy: EVQLVESGGGLVQPGGSLRLSCAASGFDFADYAMHWVRQAPGKGLEWVSAITWNGGHTDYADSVKGRFTISRDNSKNTLYLQMNSLRAEDTAVYYCAKVSYLSTASSLDYWGQGTLVTVSSASTKGPSVFPLAPSSKSTSGGTAALGCLVKDYFPEPVTVSWNSGALTSGVHTFPAVLQSSGLYSLSSVVTVPSSSLGTQTYICNVNHKPSNTKVDKKVEPKSCDKTHTCPPCPAPPAAGPSVFLFPPKPKDTLMISRTPEVTCVVVDVSHEDPEVKFNWYVDGVEVHNAKTKPREEQYNSTYRVVSVLTVLHQDWLNGKEYKCKVSNKALPAPIEKTISKAKGQPREPQVYTLPPSRDELTKNQVSLTCLVKGFYPSDIAVEWESNGQPENNYKTTPPVLDSDGSFLLYSKLTVDKSRWQQGNVFSCSVLHEALHSHYTQKSLSLSPGK light: not shown | binds
TAVO188189 after digestion by MMP2 (antibody, also called digested shielded antibody; digested TAVO188189; not shown: remnant of the protease-cleavable linker left after cleavage) heavy: EVQLVESGGGLVQPGGSLRLSCAASGFDFADYAMHWVRQAPGKGLEWVSAITWNGGHTDYADSVKGRFTISRDNSKNTLYLQMNSLRAEDTAVYYCAKVSYLSTASSLDYWGQGTLVTVSSASTKGPSVFPLAPSSKSTSGGTAALGCLVKDYFPEPVTVSWNSGALTSGVHTFPAVLQSSGLYSLSSVVTVPSSSLGTQTYICNVNHKPSNTKVDKKVEPKSCDKTHTCPPCPAPPAAGPSVFLFPPKPKDTLMISRTPEVTCVVVDVSHEDPEVKFNWYVDGVEVHNAKTKPREEQYNSTYRVVSVLTVLHQDWLNGKEYKCKVSNKALPAPIEKTISKAKGQPREPQVYTLPPSRDELTKNQVSLTCLVKGFYPSDIAVEWESNGQPENNYKTTPPVLDSDGSFLLYSKLTVDKSRWQQGNVFSCSVLHEALHSHYTQKSLSLSPGK light: not shown | binds
TAVO194195 after digestion by MMP2 (antibody, also called digested shielded antibody; digested TAVO194195; not shown: remnant of the protease-cleavable linker left after cleavage) heavy: EVQLVESGGGLVQPGGSLRLSCAASGFDFADYAMHWVRQAPGKGLEWVSAITWNGGHTDYADSVKGRFTISRDNSKNTLYLQMNSLRAEDTAVYYCAKVSYLSTASSLDYWGQGTLVTVSSASTKGPSVFPLAPSSKSTSGGTAALGCLVKDYFPEPVTVSWNSGALTSGVHTFPAVLQSSGLYSLSSVVTVPSSSLGTQTYICNVNHKPSNTKVDKKVEPKSCDKTHTCPPCPAPPAAGPSVFLFPPKPKDTLMISRTPEVTCVVVDVSHEDPEVKFNWYVDGVEVHNAKTKPREEQYNSTYRVVSVLTVLHQDWLNGKEYKCKVSNKALPAPIEKTISKAKGQPREPQVYTLPPSRDELTKNQVSLTCLVKGFYPSDIAVEWESNGQPENNYKTTPPVLDSDGSFLLYSKLTVDKSRWQQGNVFSCSVLHEALHSHYTQKSLSLSPGK light: not shown | binds
TAVO190191 after digestion by MMP2 (antibody, also called digested shielded antibody; digested TAVO190191; not shown: remnant of the protease-cleavable linker left after cleavage) heavy: EVQLVESGGGLVQPGGSLRLSCAASGFDFADYAMHWVRQAPGKGLEWVSAITWNGGHTDYADSVKGRFTISRDNSKNTLYLQMNSLRAEDTAVYYCAKVSYLSTASSLDYWGQGTLVTVSSASTKGPSVFPLAPSSKSTSGGTAALGCLVKDYFPEPVTVSWNSGALTSGVHTFPAVLQSSGLYSLSSVVTVPSSSLGTQTYICNVNHKPSNTKVDKKVEPKSCDKTHTCPPCPAPPAAGPSVFLFPPKPKDTLMISRTPEVTCVVVDVSHEDPEVKFNWYVDGVEVHNAKTKPREEQYNSTYRVVSVLTVLHQDWLNGKEYKCKVSNKALPAPIEKTISKAKGQPREPQVYTLPPSRDELTKNQVSLTCLVKGFYPSDIAVEWESNGQPENNYKTTPPVLDSDGSFLLYSKLTVDKSRWQQGNVFSCSVLHEALHSHYTQKSLSLSPGK light: not shown | binds
TAVO196197 after digestion by MMP3 (antibody, also called digested shielded antibody; digested TAVO196197; not shown: remnant of the protease-cleavable linker left after cleavage) heavy: EVQLVESGGGLVQPGGSLRLSCAASGFDFADYAMHWVRQAPGKGLEWVSAITWNGGHTDYADSVKGRFTISRDNSKNTLYLQMNSLRAEDTAVYYCAKVSYLSTASSLDYWGQGTLVTVSSASTKGPSVFPLAPSSKSTSGGTAALGCLVKDYFPEPVTVSWNSGALTSGVHTFPAVLQSSGLYSLSSVVTVPSSSLGTQTYICNVNHKPSNTKVDKKVEPKSCDKTHTCPPCPAPPAAGPSVFLFPPKPKDTLMISRTPEVTCVVVDVSHEDPEVKFNWYVDGVEVHNAKTKPREEQYNSTYRVVSVLTVLHQDWLNGKEYKCKVSNKALPAPIEKTISKAKGQPREPQVYTLPPSRDELTKNQVSLTCLVKGFYPSDIAVEWESNGQPENNYKTTPPVLDSDGSFLLYSKLTVDKSRWQQGNVFSCSVLHEALHSHYTQKSLSLSPGK light: not shown | binds
